The binders below were run against T1, FcγRIIIa extracellular domain with C-terminal His tag (human, UniProt P08637 17-208) (assay: SPR relative binding; GpH7-A5/GpH7-B3/GpL16-k0 = 100).
T1 construct: extracellular domain; also called FcgRIIIa; 3a; not shown: His tag at the C terminus
Method: Analysis of interaction between objective antibody and the FcγR was carried out using Biacore T100 (GE Healthcare). HBS-EP+ (GE Healthcare) was used as the running buffer, and the measurement temperature was set to 25° C. Chips produced by immobilizing the antigen peptide by the amine coupling method to a Series S Sencor Chip CM5 (GE Healthcare), or alternatively, chips produced by allowing preliminarily biotinylated antigen peptides to interact with and immobilize onto a Series S Sensor Chip SA (certified) (GE Healthcare) were used. Antibodies of interest were captured onto an antigen peptide-immobilized chip, and allowed to interact to each FcγR diluted with running buffer. To regenerate and repeatedly use the chip, the antibodies captured on the chip were washed off by reacting 10 mM glycine-HCl, pH 1.5.
The FcγR-binding activity of each antibody was assessed primarily using as an indicator the FcγR-binding activity and dissociation constant for FcγR.

T1 sequence (P08637 17-208): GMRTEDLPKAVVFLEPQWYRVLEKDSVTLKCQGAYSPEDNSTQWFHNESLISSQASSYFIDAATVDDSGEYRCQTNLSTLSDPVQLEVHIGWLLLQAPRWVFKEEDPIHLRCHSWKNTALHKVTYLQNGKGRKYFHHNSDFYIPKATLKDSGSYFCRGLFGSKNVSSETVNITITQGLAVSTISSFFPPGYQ

Binder | He/Con_3a | FcγRIIIa BINDING ACTIVITY
GpH7-A5/GpH7-B3 variant T335_15Y/GpL16-k0 (antibody, human IgG1, kappa, also called He Ab T335_15Y) heavy 1: not shown heavy 2: not shown light: DIVMTQSPLSLPVTPGEPASISCQASESLVHSNRNTYLHWYLQKPGQSPQLLIYKVSNRFSGVPDRFSGSGSGTDFTLKISRVEAEDVGVYYCSQNTHVPPTFGQGTKVEIERTVAAPSVFIFPPSDEQLKSGTASVVCLLNNFYPREAKVQWKVDNALQSGNSQESVTEQDSKDSTYSLSSTLTLSKADYEKHKVYACEVTHQGLSSPVTKSFNRGEC | 104 % of control | –
GpH7-A5/GpH7-B3 variant V266_08L/GpL16-k0 (antibody, human IgG1, kappa, also called He Ab V266_08L) heavy 1: not shown heavy 2: not shown light: DIVMTQSPLSLPVTPGEPASISCQASESLVHSNRNTYLHWYLQKPGQSPQLLIYKVSNRFSGVPDRFSGSGSGTDFTLKISRVEAEDVGVYYCSQNTHVPPTFGQGTKVEIERTVAAPSVFIFPPSDEQLKSGTASVVCLLNNFYPREAKVQWKVDNALQSGNSQESVTEQDSKDSTYSLSSTLTLSKADYEKHKVYACEVTHQGLSSPVTKSFNRGEC | 118 % of control | –
GpH7-A5/GpH7-B3 variant T335_20W/GpL16-k0 (antibody, human IgG1, kappa, also called He Ab T335_20W) heavy 1: not shown heavy 2: not shown light: DIVMTQSPLSLPVTPGEPASISCQASESLVHSNRNTYLHWYLQKPGQSPQLLIYKVSNRFSGVPDRFSGSGSGTDFTLKISRVEAEDVGVYYCSQNTHVPPTFGQGTKVEIERTVAAPSVFIFPPSDEQLKSGTASVVCLLNNFYPREAKVQWKVDNALQSGNSQESVTEQDSKDSTYSLSSTLTLSKADYEKHKVYACEVTHQGLSSPVTKSFNRGEC | 102 % of control | –
GpH7-A5/GpH7-B3-01-15Y/GpL16-k0 (antibody, human IgG1, kappa, also called He Ab L234_15Y; GpH7-A5/GpH7-B3 variant L234_15Y/GpL16-k0) heavy 1: not shown heavy 2: not shown light: DIVMTQSPLSLPVTPGEPASISCQASESLVHSNRNTYLHWYLQKPGQSPQLLIYKVSNRFSGVPDRFSGSGSGTDFTLKISRVEAEDVGVYYCSQNTHVPPTFGQGTKVEIERTVAAPSVFIFPPSDEQLKSGTASVVCLLNNFYPREAKVQWKVDNALQSGNSQESVTEQDSKDSTYSLSSTLTLSKADYEKHKVYACEVTHQGLSSPVTKSFNRGEC | 130 % of control | 131 % of control
GpH7-A5/GpH7-B3 variant T335_19Q/GpL16-k0 (antibody, human IgG1, kappa, also called He Ab T335_19Q) heavy 1: not shown heavy 2: not shown light: DIVMTQSPLSLPVTPGEPASISCQASESLVHSNRNTYLHWYLQKPGQSPQLLIYKVSNRFSGVPDRFSGSGSGTDFTLKISRVEAEDVGVYYCSQNTHVPPTFGQGTKVEIERTVAAPSVFIFPPSDEQLKSGTASVVCLLNNFYPREAKVQWKVDNALQSGNSQESVTEQDSKDSTYSLSSTLTLSKADYEKHKVYACEVTHQGLSSPVTKSFNRGEC | 102 % of control | –
GpH7-A5/GpH7-B3 variant T335_16H/GpL16-k0 (antibody, human IgG1, kappa, also called He Ab T335_16H) heavy 1: not shown heavy 2: not shown light: DIVMTQSPLSLPVTPGEPASISCQASESLVHSNRNTYLHWYLQKPGQSPQLLIYKVSNRFSGVPDRFSGSGSGTDFTLKISRVEAEDVGVYYCSQNTHVPPTFGQGTKVEIERTVAAPSVFIFPPSDEQLKSGTASVVCLLNNFYPREAKVQWKVDNALQSGNSQESVTEQDSKDSTYSLSSTLTLSKADYEKHKVYACEVTHQGLSSPVTKSFNRGEC | 104 % of control | –

Next, values leading:

He/Con_3a | FcγRIIIa BINDING ACTIVITY | Binder
114 % of control | – | GpH7-A5/GpH7-B16/GpL16-k0 (antibody, human IgG1, kappa, also called He Ab L234_10E; GpH7-A5/GpH7-B3 variant L234_10E/GpL16-k0) heavy 1: not shown heavy 2: not shown light: DIVMTQSPLSLPVTPGEPASISCQASESLVHSNRNTYLHWYLQKPGQSPQLLIYKVSNRFSGVPDRFSGSGSGTDFTLKISRVEAEDVGVYYCSQNTHVPPTFGQGTKVEIERTVAAPSVFIFPPSDEQLKSGTASVVCLLNNFYPREAKVQWKVDNALQSGNSQESVTEQDSKDSTYSLSSTLTLSKADYEKHKVYACEVTHQGLSSPVTKSFNRGEC
– | 70 % of control | GpH7-TA3/GpH7-B3-03-20W/GpL16-k0 (antibody, human IgG1, kappa, H1 S298A; H2 G236W) heavy 1: QVQLVQSGAEVKKPGASVTVSCKASGYTFTDYEMHWIRQPPGEGLEWIGAIDPKTGDTAYSESFQDRVTLTADKSTSTAYMELSSLTSEDTAVYYCTRFYSYTYWGQGTLVTVSSASTKGPSVFPLAPSSKSTSGGTAALGCLVKDYFPEPVTVSWNSGALTSGVHTFPAVLQSSGLYSLSSVVTVPSSSLGTQTYICNVNHKPSNTKVDKKVEPKSCDKTHTCPPCPAPELLGGPSVFLFPPKPKDTLMISRTPEVTCVVVDVSHEDPEVKFNWYVDGVEVHNAKTKPREEQYNATYRVVSVLTVLHQDWLNGKEYKCKVSNKALPAPIEKTISKAKGQPREPQVYTLPPSRKELTKNQVSLTCLVKGFYPSDIAVEWESNGQPENNYKTTPPVLDSDGSFFLYSKLTVDKSRWQQGNVFSCSVMHEALHNRYTQKSLSLSP heavy 2: not shown light: DIVMTQSPLSLPVTPGEPASISCQASESLVHSNRNTYLHWYLQKPGQSPQLLIYKVSNRFSGVPDRFSGSGSGTDFTLKISRVEAEDVGVYYCSQNTHVPPTFGQGTKVEIERTVAAPSVFIFPPSDEQLKSGTASVVCLLNNFYPREAKVQWKVDNALQSGNSQESVTEQDSKDSTYSLSSTLTLSKADYEKHKVYACEVTHQGLSSPVTKSFNRGEC
135 % of control | 140 % of control | GpH7-A5/GpH7-B3-03-20W/GpL16-k0 (antibody, human IgG1, kappa, also called He Ab G236_20W; GpH7-A5/GpH7-B3 variant G236_20W/GpL16-k0) heavy 1: not shown heavy 2: not shown light: DIVMTQSPLSLPVTPGEPASISCQASESLVHSNRNTYLHWYLQKPGQSPQLLIYKVSNRFSGVPDRFSGSGSGTDFTLKISRVEAEDVGVYYCSQNTHVPPTFGQGTKVEIERTVAAPSVFIFPPSDEQLKSGTASVVCLLNNFYPREAKVQWKVDNALQSGNSQESVTEQDSKDSTYSLSSTLTLSKADYEKHKVYACEVTHQGLSSPVTKSFNRGEC
117 % of control | – | GpH7-A5/GpH7-B17/GpL16-k0 (antibody, human IgG1, kappa, also called He Ab L234_09D; GpH7-A5/GpH7-B3 variant L234_09D/GpL16-k0) heavy 1: not shown heavy 2: not shown light: DIVMTQSPLSLPVTPGEPASISCQASESLVHSNRNTYLHWYLQKPGQSPQLLIYKVSNRFSGVPDRFSGSGSGTDFTLKISRVEAEDVGVYYCSQNTHVPPTFGQGTKVEIERTVAAPSVFIFPPSDEQLKSGTASVVCLLNNFYPREAKVQWKVDNALQSGNSQESVTEQDSKDSTYSLSSTLTLSKADYEKHKVYACEVTHQGLSSPVTKSFNRGEC
– | 163 % of control | GpH7-A5/GpH7-B3-15-02A/GpL16-k0 (antibody, human IgG1, kappa, H2 S298A) heavy 1: not shown heavy 2: not shown light: DIVMTQSPLSLPVTPGEPASISCQASESLVHSNRNTYLHWYLQKPGQSPQLLIYKVSNRFSGVPDRFSGSGSGTDFTLKISRVEAEDVGVYYCSQNTHVPPTFGQGTKVEIERTVAAPSVFIFPPSDEQLKSGTASVVCLLNNFYPREAKVQWKVDNALQSGNSQESVTEQDSKDSTYSLSSTLTLSKADYEKHKVYACEVTHQGLSSPVTKSFNRGEC
– | 142 % of control | GpH7-TA1/GpH7-B3-15-02A/GpL16-k0 (antibody, human IgG1, kappa, H1 L234Y; H2 S298A) heavy 1: QVQLVQSGAEVKKPGASVTVSCKASGYTFTDYEMHWIRQPPGEGLEWIGAIDPKTGDTAYSESFQDRVTLTADKSTSTAYMELSSLTSEDTAVYYCTRFYSYTYWGQGTLVTVSSASTKGPSVFPLAPSSKSTSGGTAALGCLVKDYFPEPVTVSWNSGALTSGVHTFPAVLQSSGLYSLSSVVTVPSSSLGTQTYICNVNHKPSNTKVDKKVEPKSCDKTHTCPPCPAPEYLGGPSVFLFPPKPKDTLMISRTPEVTCVVVDVSHEDPEVKFNWYVDGVEVHNAKTKPREEQYNSTYRVVSVLTVLHQDWLNGKEYKCKVSNKALPAPIEKTISKAKGQPREPQVYTLPPSRKELTKNQVSLTCLVKGFYPSDIAVEWESNGQPENNYKTTPPVLDSDGSFFLYSKLTVDKSRWQQGNVFSCSVMHEALHNRYTQKSLSLSP heavy 2: not shown light: DIVMTQSPLSLPVTPGEPASISCQASESLVHSNRNTYLHWYLQKPGQSPQLLIYKVSNRFSGVPDRFSGSGSGTDFTLKISRVEAEDVGVYYCSQNTHVPPTFGQGTKVEIERTVAAPSVFIFPPSDEQLKSGTASVVCLLNNFYPREAKVQWKVDNALQSGNSQESVTEQDSKDSTYSLSSTLTLSKADYEKHKVYACEVTHQGLSSPVTKSFNRGEC
– | 130 % of control | GpH7-TA2/GpH7-B3-01-15Y/GpL16-k0 (antibody, human IgG1, kappa, H1 G236W; H2 L234Y) heavy 1: QVQLVQSGAEVKKPGASVTVSCKASGYTFTDYEMHWIRQPPGEGLEWIGAIDPKTGDTAYSESFQDRVTLTADKSTSTAYMELSSLTSEDTAVYYCTRFYSYTYWGQGTLVTVSSASTKGPSVFPLAPSSKSTSGGTAALGCLVKDYFPEPVTVSWNSGALTSGVHTFPAVLQSSGLYSLSSVVTVPSSSLGTQTYICNVNHKPSNTKVDKKVEPKSCDKTHTCPPCPAPELLWGPSVFLFPPKPKDTLMISRTPEVTCVVVDVSHEDPEVKFNWYVDGVEVHNAKTKPREEQYNSTYRVVSVLTVLHQDWLNGKEYKCKVSNKALPAPIEKTISKAKGQPREPQVYTLPPSRKELTKNQVSLTCLVKGFYPSDIAVEWESNGQPENNYKTTPPVLDSDGSFFLYSKLTVDKSRWQQGNVFSCSVMHEALHNRYTQKSLSLSP heavy 2: not shown light: DIVMTQSPLSLPVTPGEPASISCQASESLVHSNRNTYLHWYLQKPGQSPQLLIYKVSNRFSGVPDRFSGSGSGTDFTLKISRVEAEDVGVYYCSQNTHVPPTFGQGTKVEIERTVAAPSVFIFPPSDEQLKSGTASVVCLLNNFYPREAKVQWKVDNALQSGNSQESVTEQDSKDSTYSLSSTLTLSKADYEKHKVYACEVTHQGLSSPVTKSFNRGEC
– | 151 % of control | GpH7-TA4/GpH7-B3-15-02A/GpL16-k0 (antibody, human IgG1, kappa, H1 L234Y and G236W; H2 S298A) heavy 1: QVQLVQSGAEVKKPGASVTVSCKASGYTFTDYEMHWIRQPPGEGLEWIGAIDPKTGDTAYSESFQDRVTLTADKSTSTAYMELSSLTSEDTAVYYCTRFYSYTYWGQGTLVTVSSASTKGPSVFPLAPSSKSTSGGTAALGCLVKDYFPEPVTVSWNSGALTSGVHTFPAVLQSSGLYSLSSVVTVPSSSLGTQTYICNVNHKPSNTKVDKKVEPKSCDKTHTCPPCPAPEYLWGPSVFLFPPKPKDTLMISRTPEVTCVVVDVSHEDPEVKFNWYVDGVEVHNAKTKPREEQYNSTYRVVSVLTVLHQDWLNGKEYKCKVSNKALPAPIEKTISKAKGQPREPQVYTLPPSRKELTKNQVSLTCLVKGFYPSDIAVEWESNGQPENNYKTTPPVLDSDGSFFLYSKLTVDKSRWQQGNVFSCSVMHEALHNRYTQKSLSLSP heavy 2: not shown light: DIVMTQSPLSLPVTPGEPASISCQASESLVHSNRNTYLHWYLQKPGQSPQLLIYKVSNRFSGVPDRFSGSGSGTDFTLKISRVEAEDVGVYYCSQNTHVPPTFGQGTKVEIERTVAAPSVFIFPPSDEQLKSGTASVVCLLNNFYPREAKVQWKVDNALQSGNSQESVTEQDSKDSTYSLSSTLTLSKADYEKHKVYACEVTHQGLSSPVTKSFNRGEC

Reference: patent US20180155451A1 (published 2018)
